# Laboratory results taken from US20250011363A1, “OPTIMIZED SHORTENED PEPTIDE THAT BINDS TO ACETYLCHOLINE RECEPTOR, AND USE THEREOF” (SKINMED CO., LTD., priority 2021, published 2025).
# Biological target: acetylcholine receptor (Homo sapiens, UniProt P02708)
# Test: SPR binding affinity (RU) of optimized 5mer/6mer/7mer peptides, Examples 6-7
# Details: 6mer-1 Top sequence; SPR; peptides tested at 10 μM
# Summary of the method: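 Response units from SPR give the binding values listed. Each synthesized peptide was run at 10 μM over the receptor.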
# acetylcholine receptor, sequence (P02708 21-457): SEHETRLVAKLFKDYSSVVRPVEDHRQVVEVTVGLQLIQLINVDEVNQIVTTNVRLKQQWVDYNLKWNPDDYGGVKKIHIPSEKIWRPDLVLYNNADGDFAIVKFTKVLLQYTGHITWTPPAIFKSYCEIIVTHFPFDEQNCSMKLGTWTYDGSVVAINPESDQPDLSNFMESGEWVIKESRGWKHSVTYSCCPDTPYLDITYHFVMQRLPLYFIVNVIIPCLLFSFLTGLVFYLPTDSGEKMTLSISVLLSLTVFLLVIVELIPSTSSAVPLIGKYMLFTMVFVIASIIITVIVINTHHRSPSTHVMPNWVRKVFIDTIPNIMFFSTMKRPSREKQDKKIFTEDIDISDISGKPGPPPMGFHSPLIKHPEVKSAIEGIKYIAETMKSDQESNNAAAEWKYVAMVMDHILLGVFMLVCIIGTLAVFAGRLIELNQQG
row,Substance,Binding affinity [Ru]
1,6mer-1-329 (RKWRQK),123
2,6mer-1-330 (RKVQRK),148
3,6mer-1-331 (RKRITR),128
4,6mer-1-332 (KKRVQK),122
5,6mer-1-333 (RKRQSR),135
6,6mer-1-334 (RRRRLR),154
7,6mer-1-335 (RRSQRR),148
8,6mer-1-336 (KRVVTK),154
9,6mer-1-337 (RKSRRR),144
10,6mer-1-338 (KKQVLK),127
11,6mer-1-339 (KKSIQK),147
12,6mer-1-340 (KRLLCK),142
13,6mer-1-341 (RKQQQR),128
14,6mer-1-342 (RKRFCR),131
15,6mer-1-343 (KKLYTK),135
16,6mer-1-344 (KKSQCR),125
17,6mer-1-345 (KKLLCR),147
18,6mer-1-346 (KKRIYR),123
19,6mer-1-347 (KKQQSK),126
20,6mer-1-348 (RKQRLK),142
21,6mer-1-349 (KRLYSK),123
22,6mer-1-350 (KKLQTK),153
23,6mer-1-351 (RRGLRK),141
24,6mer-1-352 (RKVFRK),142
25,6mer-1-353 (KRLYLK),126

row,Substance,Binding affinity [Ru]
1,6mer-1-354 (KKVFLK),153
2,6mer-1-355 (RKVFYR),148
3,6mer-1-356 (KRGYSK),153
4,6mer-1-357 (KRRQTR),148
5,6mer-1-358 (KRRYTR),124
6,6mer-1-359 (KRQFLR),131
7,6mer-1-360 (KRVFLK),148
8,6mer-1-361 (RKSVQR),127
9,6mer-1-362 (KRVVYK),133
10,6mer-1-363 (KRQIRR),121
11,6mer-1-364 (RKRQSK),124
12,6mer-1-365 (KKRICK),142
13,6mer-1-366 (KRWFCR),133
14,6mer-1-367 (RKGFSK),154
15,6mer-1-368 (RRRFSK),145
16,6mer-1-369 (KKWYRK),144
17,6mer-1-370 (RKQLYK),142
18,6mer-1-371 (KRSLTR),153
19,6mer-1-372 (RKLRSK),145
20,6mer-1-373 (KRGVLK),149
21,6mer-1-374 (KKQFQK),148
22,6mer-1-375 (RRVFYR),154
23,6mer-1-376 (RRQLRK),121
24,6mer-1-377 (KRWITR),148
25,6mer-1-378 (KRSLQK),153

row,Substance,Binding affinity [Ru]
1,6mer-1-379 (KRRISK),153
2,6mer-1-380 (KRLQLR),121
3,6mer-1-381 (RKGFYR),124
4,6mer-1-382 (KRQYTR),139
5,6mer-1-383 (RKRRTK),148
6,6mer-1-384 (RKVICK),148
7,6mer-1-385 (KRQVLR),127
8,6mer-1-386 (RRSYQK),127
9,6mer-1-387 (KKGRLR),148
10,6mer-1-388 (RRLLQR),142
11,6mer-1-389 (RKLFCK),125
12,6mer-1-390 (RKLQQR),121
13,6mer-1-391 (RRQRCK),131
14,6mer-1-392 (RRVQTR),135
15,6mer-1-393 (KRLYYK),148
16,6mer-1-394 (KKVRRR),149
17,6mer-1-395 (KKRQTK),125
18,6mer-1-396 (KRQIQK),148
19,6mer-1-397 (KRLILR),125
20,6mer-1-398 (KKQYYR),137
21,6mer-1-399 (KRWILR),125
22,6mer-1-400 (KRWQTK),123
23,6mer-1-401 (RRLYCR),127
24,6mer-1-402 (RRRVLR),153

# Same assay, conditions: SPR, peptides tested at 10 μM; 6mer-1 Top sequence
row,Substance,Binding affinity [Ru]
1,6mer-1-403 (KRSQTK),153
2,6mer-1-404 (KKQRQK),137
3,6mer-1-406 (RKVLLR),153
4,6mer-1-407 (KRLRTR),153
5,6mer-1-408 (KRGRSR),147
6,6mer-1-409 (RRWISR),144
7,6mer-1-410 (KRVLRK),148
8,6mer-1-411 (RRQRSR),121
9,6mer-1-412 (RKSILK),139
10,6mer-1-413 (RKQFCR),148
11,6mer-1-414 (KRSFLR),153
12,6mer-1-415 (RRGVCR),135
13,6mer-1-416 (RKLIYR),153
14,6mer-1-417 (RKSVCK),139
15,6mer-1-418 (RRQVRK),123
16,6mer-1-419 (KRGFYR),148
17,6mer-1-420 (KKGQYK),148
18,6mer-1-421 (RKVLYR),135
19,6mer-1-422 (KRVRQR),154
20,6mer-1-423 (RRGYCK),147
21,6mer-1-424 (RRRIYR),135
22,6mer-1-425 (RKGVQK),131

row,Substance,Binding affinity [Ru]
1,6mer-1-426 (KKGQYR),131
2,6mer-1-427 (KRWVLR),147
3,6mer-1-428 (KRVVLR),139
4,6mer-1-429 (RRQRRK),135
5,6mer-1-430 (KKQLQK),144
6,6mer-1-431 (RRRFRR),144
7,6mer-1-432 (RKGIQK),139
8,6mer-1-433 (RKQQYR),154
9,6mer-1-434 (KRWVCR),137
10,6mer-1-435 (RKWRCK),135
11,6mer-1-436 (KKLFYK),148
12,6mer-1-437 (RKWFLK),131
13,6mer-1-438 (RRGFQK),142
14,6mer-1-439 (KRRQTK),121
15,6mer-1-440 (KRVYSK),153
16,6mer-1-441 (RRVYYR),146
17,6mer-1-442 (RKLQYK),131
18,6mer-1-443 (RKVLLK),145
19,6mer-1-444 (KKWILK),144
20,6mer-1-445 (KRVRLR),145
21,6mer-1-446 (RRVIRR),124
22,6mer-1-447 (RRRQQK),146

row,Substance,Binding affinity [Ru]
1,6mer-1-448 (RKRFSR),141
2,6mer-1-449 (KRGRCK),135
3,6mer-1-450 (RKVVYK),151
4,6mer-1-451 (RKVRLR),153
5,6mer-1-452 (KRLYTR),141
6,6mer-1-453 (KKWQQK),154
7,6mer-1-454 (RKVLRR),124
8,6mer-1-455 (RRVFYK),126
9,6mer-1-456 (RRGQYR),153
10,6mer-1-457 (RKLLCR),121
11,6mer-1-459 (RRWVYK),131
12,6mer-1-460 (RRGFYR),148
13,6mer-1-461 (RRGYTR),142
14,6mer-1-462 (RKQILK),126
15,6mer-1-463 (KRSFRK),153
16,6mer-1-464 (RRQRLK),131
17,6mer-1-465 (RKQVYK),154
18,6mer-1-466 (KRSICR),148
19,6mer-1-467 (KRGYQK),121
20,6mer-1-468 (RRLYRR),153
21,6mer-1-469 (KKLIYR),139
22,6mer-1-470 (KKWVYR),148

row,Substance,Binding affinity [Ru]
1,6mer-1-471 (KKWRCK),123
2,6mer-1-472 (KRQRCK),142
3,6mer-1-473 (KKVLSK),154
4,6mer-1-474 (KRLFSK),121
5,6mer-1-475 (RKLQTK),148
6,6mer-1-476 (KRRRQK),154
7,6mer-1-477 (KRQQTK),145
8,6mer-1-478 (RKVRYK),139
9,6mer-1-479 (RRSLTR),135
10,6mer-1-480 (KKQFYK),121
11,6mer-1-481 (KRWRCK),133
12,6mer-1-482 (RKQVRK),133
13,6mer-1-483 (KRQVTK),151
14,6mer-1-484 (KKLYLR),154
15,6mer-1-485 (RRWYRR),126
16,6mer-1-486 (KRQVRK),151
17,6mer-1-487 (RKGRRK),121
18,6mer-1-488 (KKWYSK),135
19,6mer-1-489 (KKVITK),148
